According to patent publication US20230332164A1 (SYNLOGIC OPERATING, published 2023):

B7: CD47 on mouse CT26 cells (receptor, UniProt Q61735 19-303, looked up)
chain: QLLFSNVNSIEFTSCNETVVIPCIVRNVEAQSTEEMFVKWKLNKSYIFIYDGNKNSTTTDQNFTSAKISVSDLINGIASLKMDKRDAMVGNYTCEVTELSREGKTVIELKNRTVSWFSPNEKILIVIFPILAILLFWGKFGILTLKYKSSHTNKRIILLLVAGLVLTVIVVVGAILLIPGEKPVKNASGLGLIVISTGILILLQYNVFMTAFGMTSFTIAILITQVLGYVLALVGLCLCIMACEPVHGPLLISGLGIIALAELLGLVYMKFVASNQRTIQPPRNR
notes: whole, on cells; also called CD47 on CT26 cells; murine CD47 on CT26 cells

Legend:
[1] = target: IgG (control coating); test: ELISA, IgG-coated plate, clarified bacterial supernatant
[2] = target: IgG (control coating); test: ELISA, IgG-coated plate, bacterial supernatant
[3] = target: B7; test: flow cytometry on CT26 cells, 10x concentrated supernatant
[4] = target: T1, recombinant SIRPα (Rndsystems) (mouse, UniProt P97797 32-373, limits assumed); test: competition flow cytometry on CT26 cells
T1 construct: also called recombinant SIRPalpha; recombinant mSIRPα
T1 sequence (looked up): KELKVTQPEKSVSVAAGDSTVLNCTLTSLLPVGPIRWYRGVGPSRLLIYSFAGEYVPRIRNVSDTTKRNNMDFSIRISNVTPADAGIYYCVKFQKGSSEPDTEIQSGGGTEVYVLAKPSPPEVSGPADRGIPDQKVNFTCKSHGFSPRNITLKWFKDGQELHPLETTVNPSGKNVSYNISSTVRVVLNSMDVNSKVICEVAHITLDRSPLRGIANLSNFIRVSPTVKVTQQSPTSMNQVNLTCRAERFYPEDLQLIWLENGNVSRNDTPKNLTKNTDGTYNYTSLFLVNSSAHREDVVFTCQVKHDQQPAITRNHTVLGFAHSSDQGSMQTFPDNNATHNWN

B1: mCD40L1 (47-260), secreted by SYN3366 (ligand)
chain: VDYKDDDDKQLGGGHRRLDKVEEEVNLHEDFVFIKKLKRCNKGEGSLSLLNCEEMRRQFEDLVKDITLNKEEKKENSFEMQRGDEDPQIAAHVVSEANSNAASVLQWAKKGYYTMKSNLVMLENGKQLTVKREGLYYVYTQVTFCSNREPSSQRPFIVGLWLKPSSGSERILLKAANTHSSSQLCEQQSVHLGGVFELQAGASVFVNVTEASQVIHRVGFSSFGLLKLKGELNSKLEGKPIPNPLLGLDSTDPNSSSVDHHHHHH
In the case of B1, the ELISA signal (unit not given) [1] is reported as 0.052.

B2: mCD40L2 (112-260), secreted by SYN3367 (ligand)
chain: VDYKDDDDKQLGGGMQRGDEDPQIAAHVVSEANSNAASVLQWAKKGYYTMKSNLVMLENGKQLTVKREGLYYVYTQVTFCSNREPSSQRPFIVGLWLKPSSGSERILLKAANTHSSSQLCEQQSVHLGGVFELQAGASVFVNVTEASQVIHRVGFSSFGLLKLKGELNSKLEGKPIPNPLLGLDSTDPNSSSVDHHHHHH
B2 was tested, and the ELISA signal (unit not given) [1] was 0.052.

B3: WT mSIRPα (32-373), secreted by SYN2996 (receptor)
chain: VDYKDDDDKQLGGGKELKVTQPEKSVSVAAGDSTVLNCTLTSLLPVGPIKWYRGVGQSRLLIYSFTGEHFPRVTNVSDATKRNNMDFSIRISNVTPEDAGTYYCVKFQKGPSEPDTEIQSGGGTEVYVLAKPSPPEVSGPADRGIPDQKVNFTCKSHGFSPRNITLKWFKDGQELHHLETTVNPSGKNVSYNISSTVRVVLNSMDVHSKVICEVAHITLDRSPLRGIANLSNFIRVSPTVKVTQQSPTSMNQVNLTCRAERFYPEDLQLIWLENGNVSRNDTPKNLTKNTDGTYNYTSLFLVNSSAHREDVVFTCQVKHDQQPAITRNHTVLGLAHSSDQGSMQTFPGNNATHNWNKGELNSKLEGKPIPNPLLGLDSTDPNSSSVDHHHHHH
For B3, the ELISA signal (unit not given) [2] was 0.056.

B4: anti-mCD47 scFv, secreted by SYN3161 (scFv)
scFv: QVKLLQSGAALVKPGASVKMSCQASGYSFTDYWVTWVKQSHGQSLEWIGEIYPSNTVTNFNDNFKGKATLTVDKSTSTAYMELSRLTSEDSAIYYCTRIGNSGYRVGWFIYWGQGTLVTVLSGGGGSGGGGSGGGGSDTVLTQSPALAVSPGERVTISCKASESVSSHMHWYQQKPGQQPKLLIYKASNLASGVPARFSGSGSGTDFTLTIDPVEADDTATYFCQQGWNGPFTFGAGTRLELKRADAAGSGELGGSGKPIPNPLLGLDSTGSGHHHHHH
With B4 the ELISA signal (unit not given) [2] was 0.067.

B5: mCV1SIRPα, secreted by SYN3159 (receptor)
chain: VDYKDDDDKQLGGSEEELQIIQPDKSVLVAAGETATLRCTITSLFPVGPIQWFRGAGPGRVLIYNQRQGPFPRVTTVSDTTKRNNMDFSIRIGNITPADAGTYYCIKFRKGSPDDVEFKSGAGTELSVRAKPSGSGELGGSGKPIPNPLLGLDSTGSGHHHHHH
notes: also called PhoA-FLAG-CV1sirpα-V5-HIS
B5: binds [3].

B6: mFD6x2SIRPα, secreted by SYN3160 (receptor)
chain: VDYKDDDDKQLGGSEEEVQIIQPDKSVSVAAGESAILHCTITSLFPVGPIQWFRGAGPARVLIYNQRQGPFPRVTTISETTRRENMDFSISISNITPADAGTYYCIKFRKGSPDTEFKSGAGTELSVRAKPSGGGGSGGGGSEEEVQIIQPDKSVSVAAGESAILHCTITSLFPVGPIQWFRGAGPARVLIYNQRQGPFPRVTTISETTRRENMDFSISISNITPADAGTYYCIKFRKGSPDTEFKSGAGTELSVRAKPSGSGELGGSGKPIPNPLLGLDSTGSGHHHHHH
notes: also called mFD62xSIRPα; FD1x2SIRPα
B6: binds [3].

B7: binds [4].
